Results: patent publication US20210017279A1 (NANJING LEGEND BIOTECH, published 2021)

Tests used:
[1] = biological target: LAG-3 on Thaw-and-Use LAG-3 Effector cells; assay: cell-based or functional assay
[2] = biological target: PD-1 in the PD-1 cell based reporter assay; assay: cell-based or functional assay
Human LAG-3-His = biological target: T1, Human LAG-3-His (human, UniProt P18627 29-450); assay: SPR (Biacore T200), as in Example 3; Experiment 1
T1 construct: Bought recombinant protein; also called Human LAG-3 protein (Acrobiosystem, 772-6BGF2-D5); not shown: His tag
T1 sequence: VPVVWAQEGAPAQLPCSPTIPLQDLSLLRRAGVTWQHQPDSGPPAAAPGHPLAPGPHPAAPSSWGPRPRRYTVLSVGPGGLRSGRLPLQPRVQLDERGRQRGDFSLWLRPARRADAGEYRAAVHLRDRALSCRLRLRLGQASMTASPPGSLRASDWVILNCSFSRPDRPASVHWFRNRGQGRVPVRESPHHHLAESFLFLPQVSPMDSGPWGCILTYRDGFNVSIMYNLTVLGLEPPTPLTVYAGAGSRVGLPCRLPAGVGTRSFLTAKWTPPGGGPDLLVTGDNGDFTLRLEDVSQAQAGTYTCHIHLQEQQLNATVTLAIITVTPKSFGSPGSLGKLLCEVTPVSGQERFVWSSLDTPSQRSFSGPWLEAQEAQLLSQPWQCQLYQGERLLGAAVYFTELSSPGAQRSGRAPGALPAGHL

Human PD-1 = Human PD-1 (human, UniProt Q15116 25-167, limits assumed); assay: SPR (Biacore T200), as in Example 3; Experiment 1
Sequence of Human PD-1 (Q15116 25-167 limits assumed): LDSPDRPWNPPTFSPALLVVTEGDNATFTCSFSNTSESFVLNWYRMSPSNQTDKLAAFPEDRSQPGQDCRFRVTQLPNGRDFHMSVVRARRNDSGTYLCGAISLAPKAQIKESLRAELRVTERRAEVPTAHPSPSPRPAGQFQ

[3] = biological target: T2, PD-1 expressed on CHO cells (UniProt Q15116 25-288, limits assumed); assay: flow cytometry on CHO cells expressing PD-1; Experiment 1
T2 construct: whole, on cells; also called CHO-PD-1 cells
T2 sequence (Q15116 25-288 limits assumed): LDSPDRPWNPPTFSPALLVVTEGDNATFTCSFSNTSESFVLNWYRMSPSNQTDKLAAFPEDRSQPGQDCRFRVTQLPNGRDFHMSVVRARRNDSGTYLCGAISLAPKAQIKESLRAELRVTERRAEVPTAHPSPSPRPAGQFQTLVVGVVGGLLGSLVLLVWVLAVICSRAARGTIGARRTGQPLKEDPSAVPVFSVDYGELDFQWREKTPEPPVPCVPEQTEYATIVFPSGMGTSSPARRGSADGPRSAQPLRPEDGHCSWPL

[4] = biological target: T3, human LAG-3 expressed on CHO-K1 cells (human, UniProt P18627 29-525); assay: flow cytometry on CHO cells expressing LAG-3; Experiment 1
T3 construct: also called CHO-huLAG-3 cells; LAG-3 expressed on CHO cells
T3 sequence: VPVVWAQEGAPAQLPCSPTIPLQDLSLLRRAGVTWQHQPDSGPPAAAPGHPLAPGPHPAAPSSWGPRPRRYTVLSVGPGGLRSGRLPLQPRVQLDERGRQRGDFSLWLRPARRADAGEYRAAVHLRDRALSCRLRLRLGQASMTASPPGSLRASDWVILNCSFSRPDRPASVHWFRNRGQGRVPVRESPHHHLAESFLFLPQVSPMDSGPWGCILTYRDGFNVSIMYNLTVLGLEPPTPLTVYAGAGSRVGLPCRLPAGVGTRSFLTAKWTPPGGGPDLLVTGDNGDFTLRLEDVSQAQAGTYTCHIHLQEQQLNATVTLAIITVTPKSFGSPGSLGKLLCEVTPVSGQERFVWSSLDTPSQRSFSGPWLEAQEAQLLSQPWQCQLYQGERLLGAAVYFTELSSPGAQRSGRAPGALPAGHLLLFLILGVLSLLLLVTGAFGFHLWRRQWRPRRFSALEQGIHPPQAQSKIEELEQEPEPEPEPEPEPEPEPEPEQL

[5] = biological target: T2, PD-1 expressed on CHO cells; assay: flow cytometry competition; blocks PD-L1 binding to CHO-PD-1 cells; Experiment 1
LAG-3-Fc = biological target: T4, LAG-3-Fc (human, UniProt P18627 29-450, biotinylated (in the blocking assays)); assay: flow cytometry competition; blocks LAG-3-Fc binding to MHC II on A375 cells; Experiment 1
T4 construct: Recombinant LAG-3-Fc (Acrobiosystems / R&D Systems); also called biotinylated LAG-3-Fc protein; not shown: Fc part
T4 sequence: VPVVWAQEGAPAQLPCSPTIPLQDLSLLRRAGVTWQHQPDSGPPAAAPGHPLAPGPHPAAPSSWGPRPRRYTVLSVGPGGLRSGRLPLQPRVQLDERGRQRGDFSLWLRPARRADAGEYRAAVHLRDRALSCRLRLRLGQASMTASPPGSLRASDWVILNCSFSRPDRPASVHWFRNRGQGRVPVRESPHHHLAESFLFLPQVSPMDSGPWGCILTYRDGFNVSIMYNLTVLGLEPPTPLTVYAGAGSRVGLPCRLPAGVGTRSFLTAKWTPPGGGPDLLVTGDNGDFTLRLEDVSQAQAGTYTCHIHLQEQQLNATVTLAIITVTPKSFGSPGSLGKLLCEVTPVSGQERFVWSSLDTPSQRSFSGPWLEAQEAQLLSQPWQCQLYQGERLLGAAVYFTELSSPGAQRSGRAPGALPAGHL

B1: BLP-1 (bispecific antibody, human IgG4 S228P, kappa)
heavy: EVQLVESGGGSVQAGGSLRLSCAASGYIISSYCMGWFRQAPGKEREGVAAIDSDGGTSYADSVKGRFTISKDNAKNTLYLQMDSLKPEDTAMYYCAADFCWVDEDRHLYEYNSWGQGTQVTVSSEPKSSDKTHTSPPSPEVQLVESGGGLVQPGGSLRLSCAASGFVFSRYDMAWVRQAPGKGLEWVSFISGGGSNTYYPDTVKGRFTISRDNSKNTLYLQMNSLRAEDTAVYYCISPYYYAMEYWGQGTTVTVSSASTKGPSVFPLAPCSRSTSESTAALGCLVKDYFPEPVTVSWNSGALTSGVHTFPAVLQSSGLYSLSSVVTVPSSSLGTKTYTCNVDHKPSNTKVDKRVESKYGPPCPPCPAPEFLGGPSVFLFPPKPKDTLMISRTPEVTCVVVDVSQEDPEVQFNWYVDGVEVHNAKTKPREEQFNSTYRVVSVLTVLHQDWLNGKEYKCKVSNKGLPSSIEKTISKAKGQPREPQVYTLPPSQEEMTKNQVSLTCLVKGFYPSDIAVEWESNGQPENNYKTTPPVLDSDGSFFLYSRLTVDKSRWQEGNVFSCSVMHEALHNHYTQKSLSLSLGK
light: DIQMTQSPSSVSASVGDRVTITCKASQDVDTAVAWYQQKPGKAPKLLIYWASTRHTGVPSRFSGSGSGTDFTLTISSLQPEDFATYYCQQYSTFPWTFGGGTKVEIKRTVAAPSVFIFPPSDEQLKSGTASVVCLLNNFYPREAKVQWKVDNALQSGNSQESVTEQDSKDSTYSLSSTLTLSKADYEKHKVYACEVTHQGLSSPVTKSFNRGEC
notes: also called PD-1 x LAG-3 proof-of-concept BABP
B1 was tested, and the “LAG-3 blockade reporter assay EC50” value [1] was 4.6 nM, the “PD-1 cell based reporter assay EC50” value [2] was 7.62 nM and the Kd (Human LAG-3-His) was 0.44 nM. It also gave a Kd (Human PD-1) of 1.8 nM, an EC50 [3] of 7.91 nM and an EC50 [4] of 0.883 nM. For the same binder, the EC50 [5] was 6.66 nM and the EC50 (LAG-3-Fc) was 1.8 nM.
